This note sets out measurements from patent publication US8906844B2 (SYNTONIX PHARMACEUTICALS, dated 2014).

Positions of bridges follow the written chain, without caps; N, C: chain ends. Non-standard residues stand in square brackets, D forms with d. No end group written: not given here. Pen = CC(C)(S)[C@H](N)C(=O)O; βAla = NCCC(=O)O

Usually IC50 stands for the concentration that gives 50% inhibition. A lower IC50 goes with higher potency. Usually Kd stands for the concentration at which binding is half-saturated. Read a low Kd as higher affinity.

First the molecules themselves.
B1: Peptide No. 286 (peptide)
peptide: RFXTGHFGXXYPC
modifications: Pen3; Sar9; NMeLeu10; intrachain disulfide; N-termini joined by Glu (from Boc-Glu(OH)-OH) with a free amine; C-terminal amide
B2: Peptide No. 151 (peptide)
peptide: QRF[Pen]TGHF[dF][dA]LYPCNGP-NH2
modifications: disulfide 4-14; N-terminus assumed
SMILES: CC(C)C[C@@H]1NC(=O)[C@@H](C)NC(=O)[C@@H](Cc2ccccc2)NC(=O)[C@H](Cc2ccccc2)NC(=O)[C@H](Cc2c[nH]cn2)NC(=O)CNC(=O)[C@H]([C@@H](C)O)NC(=O)[C@@H](NC(=O)[C@H](Cc2ccccc2)NC(=O)[C@H](CCCNC(=N)N)NC(=O)[C@@H](N)CCC(N)=O)C(C)(C)SSC[C@@H](C(=O)N[C@@H](CC(N)=O)C(=O)NCC(=O)N2CCC[C@H]2C(N)=O)NC(=O)[C@@H]2CCCN2C(=O)[C@H](Cc2ccc(O)cc2)NC1=O
B3: Peptide No. 288 (peptide)
peptide: RFXTGHFGXXYPCGG
modifications: Pen3; Sar9; NMeLeu10; intrachain disulfide; C-termini joined through a branching Lys
notes: dimer made as Peptide No. 280
B4: Peptide No. 280 (peptide)
peptide: RFXTGHFGXXYPC
modifications: sequence analogous to Peptide No. 235; C-termini joined through a branching Lys (Fmoc-Lys(Fmoc)-OH); intrachain disulfide
notes: dimer
B5: Peptide No. 279 (peptide)
peptide: RFXTGHFGXXYPC
modifications: Pen3; Sar9; NMeLeu10; intrachain disulfide; N-termini joined by Bis-dPEG6 diacid linker; C-terminal amide
B6: Peptide No. 167 (peptide)
peptide: QRFVTGHFG[dP]LYPVNGP-NH2
modifications: N-terminus assumed
SMILES: CC(C)C[C@H](NC(=O)[C@H]1CCCN1C(=O)CNC(=O)[C@H](Cc1ccccc1)NC(=O)[C@H](Cc1c[nH]cn1)NC(=O)CNC(=O)[C@@H](NC(=O)[C@@H](NC(=O)[C@H](Cc1ccccc1)NC(=O)[C@H](CCCNC(=N)N)NC(=O)[C@@H](N)CCC(N)=O)C(C)C)[C@@H](C)O)C(=O)N[C@@H](Cc1ccc(O)cc1)C(=O)N1CCC[C@H]1C(=O)N[C@H](C(=O)N[C@@H](CC(N)=O)C(=O)NCC(=O)N1CCC[C@H]1C(N)=O)C(C)C
B7: Peptide No. 169 (peptide)
peptide: QRFVTGHFG[dP]LYPINGP-NH2
modifications: N-terminus assumed
SMILES: CC[C@H](C)[C@H](NC(=O)[C@@H]1CCCN1C(=O)[C@H](Cc1ccc(O)cc1)NC(=O)[C@H](CC(C)C)NC(=O)[C@H]1CCCN1C(=O)CNC(=O)[C@H](Cc1ccccc1)NC(=O)[C@H](Cc1c[nH]cn1)NC(=O)CNC(=O)[C@@H](NC(=O)[C@@H](NC(=O)[C@H](Cc1ccccc1)NC(=O)[C@H](CCCNC(=N)N)NC(=O)[C@@H](N)CCC(N)=O)C(C)C)[C@@H](C)O)C(=O)N[C@@H](CC(N)=O)C(=O)NCC(=O)N1CCC[C@H]1C(N)=O
B8: Peptide No. 175 (peptide)
peptide: QRFVTGHFG[dP]FYPANGP-NH2
modifications: N-terminus assumed
SMILES: CC(C)[C@H](NC(=O)[C@H](Cc1ccccc1)NC(=O)[C@H](CCCNC(=N)N)NC(=O)[C@@H](N)CCC(N)=O)C(=O)N[C@H](C(=O)NCC(=O)N[C@@H](Cc1c[nH]cn1)C(=O)N[C@@H](Cc1ccccc1)C(=O)NCC(=O)N1CCC[C@@H]1C(=O)N[C@@H](Cc1ccccc1)C(=O)N[C@@H](Cc1ccc(O)cc1)C(=O)N1CCC[C@H]1C(=O)N[C@@H](C)C(=O)N[C@@H](CC(N)=O)C(=O)NCC(=O)N1CCC[C@H]1C(N)=O)[C@@H](C)O
B9: Peptide No. 176 (peptide)
peptide: QRFVTGHFG[dP]YYPANGP-NH2
modifications: N-terminus assumed
SMILES: CC(C)[C@H](NC(=O)[C@H](Cc1ccccc1)NC(=O)[C@H](CCCNC(=N)N)NC(=O)[C@@H](N)CCC(N)=O)C(=O)N[C@H](C(=O)NCC(=O)N[C@@H](Cc1c[nH]cn1)C(=O)N[C@@H](Cc1ccccc1)C(=O)NCC(=O)N1CCC[C@@H]1C(=O)N[C@@H](Cc1ccc(O)cc1)C(=O)N[C@@H](Cc1ccc(O)cc1)C(=O)N1CCC[C@H]1C(=O)N[C@@H](C)C(=O)N[C@@H](CC(N)=O)C(=O)NCC(=O)N1CCC[C@H]1C(N)=O)[C@@H](C)O
B10: Peptide No. 174 (peptide)
peptide: QRFVTGHFG[dP]IYPANGP-NH2
modifications: N-terminus assumed
SMILES: CC[C@H](C)[C@H](NC(=O)[C@H]1CCCN1C(=O)CNC(=O)[C@H](Cc1ccccc1)NC(=O)[C@H](Cc1c[nH]cn1)NC(=O)CNC(=O)[C@@H](NC(=O)[C@@H](NC(=O)[C@H](Cc1ccccc1)NC(=O)[C@H](CCCNC(=N)N)NC(=O)[C@@H](N)CCC(N)=O)C(C)C)[C@@H](C)O)C(=O)N[C@@H](Cc1ccc(O)cc1)C(=O)N1CCC[C@H]1C(=O)N[C@@H](C)C(=O)N[C@@H](CC(N)=O)C(=O)NCC(=O)N1CCC[C@H]1C(N)=O
B11: Peptide No. 287 (peptide)
peptide: RFXTGHFGXXYPCG
modifications: Pen3; Sar9; NMeLeu10; intrachain disulfide; C-termini joined through a branching Lys
notes: dimer made as Peptide No. 280
B12: Peptide No. 25 (peptide)
peptide: QRFCGHF[βAla]LYPCNGP-NH2
modifications: disulfide 4-12; N-terminus assumed
SMILES: CC(C)C[C@@H]1NC(=O)CCNC(=O)[C@H](Cc2ccccc2)NC(=O)[C@H](Cc2c[nH]cn2)NC(=O)CNC(=O)[C@@H](NC(=O)[C@H](Cc2ccccc2)NC(=O)[C@H](CCCNC(=N)N)NC(=O)[C@@H](N)CCC(N)=O)CSSC[C@@H](C(=O)N[C@@H](CC(N)=O)C(=O)NCC(=O)N2CCC[C@H]2C(N)=O)NC(=O)[C@@H]2CCCN2C(=O)[C@H](Cc2ccc(O)cc2)NC1=O
notes: printed QRFCGHF-betaAla-LYPCNGP (no Thr)
B13: Peptide No. 289 (peptide)
peptide: RFXTGHFGXXYPC
modifications: Pen3; Sar9; NMeLeu10; intrachain disulfide; N-termini joined by Asp; linker amine acylated with PEG 30 kDa succinimidyl ester; C-terminal amide
notes: also called pegylated analog of Peptide No. 285

T1 sequence (P55899 24-297 limits assumed, chain 1 of 2): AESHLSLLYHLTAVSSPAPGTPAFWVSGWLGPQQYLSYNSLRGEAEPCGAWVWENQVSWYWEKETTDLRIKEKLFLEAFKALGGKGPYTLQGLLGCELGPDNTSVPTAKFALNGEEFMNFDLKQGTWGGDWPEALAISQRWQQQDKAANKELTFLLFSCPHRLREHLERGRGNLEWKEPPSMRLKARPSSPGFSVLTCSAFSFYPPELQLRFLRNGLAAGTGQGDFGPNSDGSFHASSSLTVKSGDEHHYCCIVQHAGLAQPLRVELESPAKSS
T1 sequence (P61769 21-119 limits assumed, chain 2 of 2): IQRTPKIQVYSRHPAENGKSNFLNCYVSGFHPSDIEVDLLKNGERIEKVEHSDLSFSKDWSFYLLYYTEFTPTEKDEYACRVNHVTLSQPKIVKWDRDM

One assay has as its target T1, soluble human FcRn (shFcRn) (human, UniProt P55899 24-297; P61769 21-119, biotinylated with Sulfo-NHS-LC-Biotin in the ELISA; amine-coupled to a CM5 chip in SPR).
T1 construct: also called biotinylated shFcRn
Nature of the assay: competition ELISA vs human IgG. The procedure:
The wells were coated with 100 μl/well of 1 μg/ml biotinylated-shFcRn in Buffer A. The plate was sealed and incubated at 37° C. for 2 hours. Afterwards, the plate was washed with 200 μl/well of Buffer B (Buffer B: 100 mM MES pH 6, 150 mM NaCl, 0.5% BSA IgG-free (Jackson ImmunoResearch, West Grove, Pa.), 0.05% Tween-20). […] To allow for mixing, the plate was rocked for 2 minutes, sealed and incubated at 37° C. for 2 hours. […] The plate was covered, incubated for 30 minutes at room temperature and washed 4 times with 200 μl/well of ice-cold buffer B. SureBlue TMB substrate solution (100 μl/well, KPL, Gaithersburg, Md.) was added and the plate was allowed to incubate at room temperature until color developed, which took 5 to 10 minutes. Once color developed, 100 μl/well of TMB stop solution (KPL, Gaithersburg, Md.) was added and the absorbance was measured at 450 nm.
For orientation: An ELISA detects its analyte on a solid surface through an enzyme-linked reagent.
As to B1, the IC50 was found to be 0.0056 µM. This lies in the single-digit nanomolar range.

On to QRFCTGHFGGLFPCNGP (disulfide; C-terminal amide) [Peptide No. 26], for which the IC50 is > 125 µM. Same read-out and setting: the value for B2 was 4.3 µM. The molecule QRFXTGHFXGLYPCNGP (Pen4; D-Tyr9; disulfide; C-terminal amide) [Peptide No. 53] showed an IC50 of 3.2 µM. Same read-out and setting: the same measure for QRFXTGHFXGLYPCNGP (Pen4; D-Arg9; disulfide; C-terminal amide) [Peptide No. 49]: 4.1 µM; for QRFCTGHFGGLYPXNGP (D-Cys14; disulfide; C-terminal amide) [Peptide No. 30]: 125 µM; for B3: 0.016 µM.

Regarding B4, the IC50 amounted to 0.025 µM. Still for that read-out and setting: the same measure for B5: 0.007 µM; for B6: 93 µM.

B7: the IC50 was 72 µM. Still for that read-out and setting: the value for B8 was 200 µM; that for QRFVTGHFGXLYPYNGP (D-Pro10; unbridged; C-terminal amide) [Peptide No. 171] was 150 µM.

B9 displayed a half-maximal inhibitory concentration (IC50) of 230 µM. B10 returned an IC50 of 94 µM. Regarding QRFVTGHFGXLYPWNGP (D-Pro10; unbridged; C-terminal amide) [Peptide No. 172], the IC50 was 150 µM. As for B11, the IC50 was 0.02 µM.

In the case of B12, the IC50 was > 125 µM. B13 yielded an IC50 of 0.018 µM. On the same count and under the same terms, the value for QRXXTGHFGGLYPCNGP (D-Phe3; Pen4; disulfide; C-terminal amide) [Peptide No. 96] was 11.4 µM.

The target of the next assay is T1, soluble human FcRn (shFcRn). Briefly: SPR, pH 6. The procedure: The following steps were performed to cross-link soluble human or cynomolgus FcRn to the dextran surface of a CM5 sensor chip (Biacore AB, Uppsala, Sweden) by an amine coupling reaction involving 1-ethyl-(3-dimethylaminopropyl)-carbodiimide hydrochloride (EDC) (Biacore AB, Uppsala, Sweden) and N-hydroxysuccinimide (NHS) (Biacore AB, Uppsala, Sweden) as recommended by Biacore (BIAapplications Handbook, version AB, section 4.2, Biacore AB, Uppsala, Sweden). The FcRn protein was diluted in 50 mM sodium acetate, pH 4.5 (Biacore AB, Uppsala, Sweden) to a concentration of 10 to 30 µg/ml and used to coat one flow cell on the sensor chip. Residual sites on the FcRn flow cell were blocked with 1 M ethanolamine hydrochloride pH 8.5 (Biacore AB, Uppsala, Sweden). A control flow cell was blocked with ethanolamine for reference subtraction. For analysis of the monomeric peptides, FcRn was coated to a final density of 4000-5000 response units (RU). For analysis of the peptide dimers, FcRn was coated to a density of 2000-2500 RU. All SPR measurements were performed using a BIACORE 3000 Instrument (Biacore AB Uppsala, Sweden). For measurements done at either pH 6 or pH 7.4, experiments were performed in 50 mM phosphate, 100 mM sodium chloride, 0.01% surfactant P20 (Biacore AB, Uppsala, Sweden).
A. Representative Procedure for the Determination of Binding Constant of Monomeric Peptides Ten 2-fold dilutions of the peptide were injected over the FcRn-CM5 chip at a rate of 20 µl/min for 2 min. The peptide was dissociated from the chip for 2.5 minutes with buffer. Any remaining peptide was removed from the chip with a 30 second injection of HBS-P buffer (Biacore AB, Uppsala, Sweden) at a rate of 30 µl/min. Sensorgrams were generated and analyzed using BiaEval software version 3.1 (Biacore AB, Uppsala, Sweden). The equilibrium RU observed for each injection was plotted against concentration. The equilibrium K_D values were derived by analysis of the plots using the steady state affinity model included in the BiaEval software.
Background: SPR reads the build-up and loss of mass on a sensor chip optically.
Molecule RFXTGAFGXXYPC (Pen3; Sar9; NMeLeu10; disulfide; C-terminal amide) [Peptide No. 266] had a Kd of 9.9 µM. On the same count and under the same terms, the same measure for QRFXTGHFXGLYPCNGP (Pen4; Sar9; disulfide; C-terminal amide) [Peptide No. 111]: 2 µM; for QRFXTGHFXPLYPCNGP (Pen4; D-Phe9; disulfide; C-terminal amide) [Peptide No. 203]: 3.8 µM.

Take RFXTGHFGXLYPC (Pen3; D-Pro9; disulfide; C-terminal amide) [Peptide No. 142]: the Kd worked out at 0.14 µM.

Molecule QRFDTGHFGXLYPKNGP (D-Ala10; lactam bridge Asp4-Lys14 side chains; C-terminal amide) [Peptide No. 105] gave a Kd of 2.1 µM.
